The target in this assay is microtubules made from mutant yeast tubulin containing no β-CTT (Saccharomyces cerevisiae) (UniProt P09733). Description: co-sedimentation; microtubule binding spin-down assay with yeast tubulin polymerized at 30 °C, experiment carried out at 30 °C; anti-tubulin and anti-CGN western blot.

B1: GST-CGN(1-406) (domain or fragment)
chain: MEQAPNMAEPRGPVDHGVQIRFITEPVSGAEMGTLRRGGRRPAKDARASTYGVAVRVQGIAGQPFVVLNSGEKGGDSFGVQIKGANDQGASGALSSDLELPENPYSQVKGFPAPSQSSTSDEEPGAYWNGKLLRSHSQASLAGPGPVDPSNRSNSMLELAPKVASPGSTIDTAPLSSVDSLINKFDSQLGGQARGRTGRRTRMLPPEQRKRSKSLDSRLPRDTFEERERQSTNHWTSSTKYDNHVGTSKQPAQSQNLSPLSGFSRSRQTQDWVLQSFEEPRRSAQDPTMLQFKSTPDLLRDQQEAAPPGSVDHMKATIYGILREGSSESETSVRRKVSLVLEKMQPLVMVSSGSTKAVAGQGELTRKVEELQRKLDEEVKKRQKLEPSQVGLERQLEEKTEECSRL
The molecule B1 gave a reduction in binding against wild-type yeast tubulin of 75%.

Values taken from publication PMC4976216.
